In the experiment the target is Drosophila Eggless/SetDB1 tandem Tudor domains (3TD, aa 444-700), wild type (Drosophila) (UniProt Q32KD2). The experiment can be described thus: SPR. On the technique in general: Surface plasmon resonance follows binding to a sensor surface in real time, without labels.

Data on one substance can be found in doi:10.1101/2023.12.10.570967.

Sequence of UniProt Q32KD2 (Q32KD2 444-700): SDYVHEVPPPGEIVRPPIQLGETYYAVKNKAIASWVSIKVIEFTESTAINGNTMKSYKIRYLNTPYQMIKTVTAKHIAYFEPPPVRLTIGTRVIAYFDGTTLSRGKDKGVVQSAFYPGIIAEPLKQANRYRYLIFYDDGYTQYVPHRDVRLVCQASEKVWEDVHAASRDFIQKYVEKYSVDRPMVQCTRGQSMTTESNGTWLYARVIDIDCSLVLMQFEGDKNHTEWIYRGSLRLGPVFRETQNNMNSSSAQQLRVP

Broadly, the Kd is a measure of binding affinity in units of concentration. H3K14ac peptide yielded a Kd of 486 µM.
